B1: LY93N (scFv)
scFv: QSALTQPRSVSGSPGQSVTISCAGTSSDVGSENYVSWYQQHPGKAPKLMIYQVNKRASGVPDRFSGSKSGNTASLTISGLQAEDEADYYCASNRSSDHNIVFGGGTKLTVLGGGGSGGGGSGGGGSEVQLVESGGGLVQPGGSLRLSCAASGFTFSSYAMSWVRQAPGKGLEWVSTINSGTGSPYYADSVKGRFTISRDNSKNTLYLQMNSLRAEDTAVYYCAKNFFDGSWFLGPPAMDYWGQGTLVTVSSHHHHHH
notes: AS170036 VL1VH1 scFv mutein
B2: LH98K (scFv)
scFv: B1 scFv with N93Y, H98K
notes: AS170036 VL1VH1 scFv mutein
B3: LE32T (scFv)
scFv: B1 scFv with E32T, N93Y
notes: AS170036 VL1VH1 scFv mutein
B4: LE32I (scFv)
scFv: B1 scFv with E32I, N93Y
notes: AS170036 VL1VH1 scFv mutein
B5: LE32M (scFv)
scFv: B1 scFv with E32M, N93Y
notes: AS170036 VL1VH1 scFv mutein
B6: LY34L (scFv)
scFv: B1 scFv with Y34L, N93Y
notes: AS170036 VL1VH1 scFv mutein
B7: LY34F (scFv)
scFv: B1 scFv with Y34F, N93Y
notes: AS170036 VL1VH1 scFv mutein
B8: LY34D (scFv)
scFv: B1 scFv with Y34D, N93Y
notes: AS170036 VL1VH1 scFv mutein
B9: LY34T (scFv)
scFv: B1 scFv with Y34T, N93Y
notes: AS170036 VL1VH1 scFv mutein
B10: LE32V (scFv)
scFv: B1 scFv with E32V, N93Y
notes: AS170036 VL1VH1 scFv mutein
B11: LY34P (scFv)
scFv: B1 scFv with Y34P, N93Y
notes: AS170036 VL1VH1 scFv mutein
B12: LE32Q (scFv)
scFv: B1 scFv with E32Q, N93Y
notes: AS170036 VL1VH1 scFv mutein
B13: LY34M (scFv)
scFv: B1 scFv with Y34M, N93Y
notes: AS170036 VL1VH1 scFv mutein
B14: LE32L (scFv)
scFv: B1 scFv with E32L, N93Y
notes: AS170036 VL1VH1 scFv mutein
B15: LE32N (scFv)
scFv: B1 scFv with E32N, N93Y
notes: AS170036 VL1VH1 scFv mutein
B16: LY93D (scFv)
scFv: B1 scFv with N93D
notes: AS170036 VL1VH1 scFv mutein
B17: LY93T (scFv)
scFv: B1 scFv with N93T
notes: AS170036 VL1VH1 scFv mutein
B18: LY34I (scFv)
scFv: B1 scFv with Y34I, N93Y
notes: AS170036 VL1VH1 scFv mutein
B19: LY34G (scFv)
scFv: B1 scFv with Y34G, N93Y
notes: AS170036 VL1VH1 scFv mutein
B20: LY93H (scFv)
scFv: B1 scFv with N93H
notes: AS170036 VL1VH1 scFv mutein
B21: LE32P (scFv)
scFv: B1 scFv with E32P, N93Y
notes: AS170036 VL1VH1 scFv mutein
B22: LY34S (scFv)
scFv: B1 scFv with Y34S, N93Y
notes: AS170036 VL1VH1 scFv mutein
B23: LY34V (scFv)
scFv: B1 scFv with Y34V, N93Y
notes: AS170036 VL1VH1 scFv mutein
B24: LH98D (scFv)
scFv: B1 scFv with N93Y, H98D
notes: AS170036 VL1VH1 scFv mutein
B25: LY34E (scFv)
scFv: B1 scFv with Y34E, N93Y
notes: AS170036 VL1VH1 scFv mutein
B26: LY34A (scFv)
scFv: B1 scFv with Y34A, N93Y
notes: AS170036 VL1VH1 scFv mutein
B27: HD102E (scFv)
scFv: B1 scFv with N93Y, D228E
notes: AS170036 VL1VH1 scFv mutein
B28: HG56D (scFv)
scFv: B1 scFv with N93Y, G182D
notes: AS170036 VL1VH1 scFv mutein
B29: HG56Y (scFv)
scFv: B1 scFv with N93Y, G182Y
notes: AS170036 VL1VH1 scFv mutein; also called AS170036 VL1VH1-VHG56Y
B30: HG56L (scFv)
scFv: B1 scFv with N93Y, G182L
notes: AS170036 VL1VH1 scFv mutein
B31: HG56M (scFv)
scFv: B1 scFv with N93Y, G182M
notes: AS170036 VL1VH1 scFv mutein
B32: HG56K (scFv)
scFv: B1 scFv with N93Y, G182K
notes: AS170036 VL1VH1 scFv mutein
B33: HG56W (scFv)
scFv: B1 scFv with N93Y, G182W
notes: AS170036 VL1VH1 scFv mutein
B34: HG56N (scFv)
scFv: B1 scFv with N93Y, G182N
notes: AS170036 VL1VH1 scFv mutein; also called AS170036 VL1VH1-VHG56N
B35: HF101W (scFv)
scFv: B1 scFv with N93Y, F227W
notes: AS170036 VL1VH1 scFv mutein
B36: HG56Q (scFv)
scFv: B1 scFv with N93Y, G182Q
notes: AS170036 VL1VH1 scFv mutein
B37: HG56S (scFv)
scFv: B1 scFv with N93Y, G182S
notes: AS170036 VL1VH1 scFv mutein
B38: HG56F (scFv)
scFv: B1 scFv with N93Y, G182F
notes: AS170036 VL1VH1 scFv mutein; also called AS170036 VL1VH1-VHG56F
B39: HG56A (scFv)
scFv: B1 scFv with N93Y, G182A
notes: AS170036 VL1VH1 scFv mutein
B40: HG56R (scFv)
scFv: B1 scFv with N93Y, G182R
notes: AS170036 VL1VH1 scFv mutein
B41: HG56E (scFv)
scFv: B1 scFv with N93Y, G182E
notes: AS170036 VL1VH1 scFv mutein
B42: HF101Y (scFv)
scFv: B1 scFv with N93Y, F227Y
notes: AS170036 VL1VH1 scFv mutein
B43: HG56T (scFv)
scFv: B1 scFv with N93Y, G182T
notes: AS170036 VL1VH1 scFv mutein
B44: HG56H (scFv)
scFv: B1 scFv with N93Y, G182H
notes: AS170036 VL1VH1 scFv mutein

Changes are numbered by the printed parent chain.

The first experiment deals with T1, AFP158/HLA-A*02:01 complex (human).
T1 construct: flowed over the chip in SPR; also called AFP158 pro
The experiment can be described thus: SPR, KD ratio to AS170036 VL1VH1. (In SPR one partner is held on a chip, and binding of the other changes the refractive index at the surface.)
Method: (§1) The experiment was carried out as follows. The crude scFv protein were captured onto the sensorchip. Different concentrations (320, 160, 40 nM) of AFP158/HLA-A*02:01 complex flowed over the sensorchip surface, and were allowed to bind the antibody fragment for 100 s followed by injection of the running buffer to allow dissociation of the complex. On-rate (kd) and off-rate (kd) were calculated based on association and dissociation curve, and were used to estimate the equilibrium dissociation constant (KD).
With B1, the Affinity increase is 0.2 fold.

Take B2: the Affinity increase is 0.2 fold.

In the case of B3, the Affinity increase worked out at 0.3 fold.

In the case of B4, the Affinity increase came out at 0.3 fold.

For the molecule B5, the Affinity increase is 0.4 fold.

For B6, the Affinity increase was found to be 0.3 fold.

On to B7, for which the Affinity increase stood at 0.3 fold.

As to B8, the Affinity increase stood at 0.3 fold.

As to B9, the Affinity increase was 0.1 fold.

On to B10, for which the Affinity increase stood at 0.3 fold.

Regarding B11, the Affinity increase turned out to be 0.2 fold.

In the case of B12, the Affinity increase is 0.4 fold.

As for B13, the Affinity increase amounted to 0.2 fold.

As for B14, the Affinity increase was 0.3 fold.

As to B15, the Affinity increase was determined as 0.4 fold.

For the molecule B16, the Affinity increase came out at 0.2 fold.

For B17, the Affinity increase came out at 0.3 fold.

For the molecule B18, the Affinity increase was found to be 0.1 fold.

As to B19, the Affinity increase came to 0.1 fold.

In the case of B20, the Affinity increase is 0.4 fold.

Consider B21, for which the Affinity increase stood at 0.2 fold.

With B22, the Affinity increase turned out to be 0.2 fold.

Consider B23, for which the Affinity increase came out at 0.3 fold.

For B24, the Affinity increase was determined as 0.2 fold.

Consider B25, for which the Affinity increase stood at 0.2 fold.

Regarding B26, the Affinity increase was 0.1 fold.

Another experiment concerns the target T1, AFP158/HLA-A*02:01 complex. Briefly: SPR, scFv captured, pMHC in flow.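 Note: complex injected at several concentrations over crude scFv, association then running-buffer dissociation, KD estimated from kinetic on- and off-rate constants.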
Method: as §1
Broadly, the Kd is the concentration at which binding is half-saturated. Low readings indicate a tighter complex, high ones a looser complex. The molecule B1 registered a Kd of 1400 nM.

B2 came in with a Kd of 1100 nM.

B3 had a Kd of 770 nM.

Molecule B4 gave a Kd of 860 nM.

Molecule B5 yielded a Kd of 590 nM.

Turning to B6, the Kd is 730 nM.

The molecule B7 registered a Kd of 780 nM.

B8 yielded a Kd of 740 nM.

B9 returned a Kd of 2200 nM.

Turning to B10, binding was characterised by a dissociation constant (Kd) of 930 nM.

The molecule B11 had a Kd of 1400 nM.

For B12, the Kd is 570 nM.

Turning to B13, the Kd worked out at 1100 nM.

With B14, binding was characterised by a dissociation constant (Kd) of 980 nM.

In turn, B15 displayed a Kd of 690 nM.

In turn, B16 gave a Kd of 1200 nM.

Molecule B17 registered a Kd of 840 nM.

B18 had a Kd of 1800 nM.

The molecule B19 displayed a Kd of 1700 nM.

B20 returned a Kd of 620 nM.

Consider B21, for which binding was characterised by a dissociation constant (Kd) of 1400 nM.

B22 displayed a Kd of 1000 nM.

With B23, the Kd was determined as 740 nM.

B24 yielded a Kd of 1100 nM.

Turning to B25, the Kd amounted to 1400 nM.

Take B26: the Kd amounted to 1700 nM.

The next experiment has as its target T1, AFP158/HLA-A*02:01 complex. The experiment can be described thus: SPR, KD ratio to AS170036 VL1VH1.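 Note: crude scFv captured on a sensor chip, peptide–HLA complex passed over at several concentrations, association then buffer dissociation, KD derived from on- and off-rates.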 This is another data set of the same source.
Method: as §1
For the molecule B27, the Affinity increase amounted to 1.2 fold.

Take B28: the Affinity increase came out at 1 fold.

On to B29, for which the Affinity increase stood at 6.6 fold.

For B30, the Affinity increase turned out to be 0.8 fold.

In the case of B31, the Affinity increase turned out to be 1.7 fold.

For B32, the Affinity increase was 0.7 fold.

As to B33, the Affinity increase turned out to be 1.7 fold.

Take B34: the Affinity increase was 2.5 fold.

Consider B35, for which the Affinity increase was 0.8 fold.

Turning to B36, the Affinity increase was determined as 1 fold.

With B37, the Affinity increase worked out at 1.5 fold.

On to B38, for which the Affinity increase stood at 2.3 fold.

Turning to B39, the Affinity increase amounted to 1.4 fold.

Turning to B40, the Affinity increase worked out at 0.8 fold.

Turning to B41, the Affinity increase turned out to be 1 fold.

Turning to B42, the Affinity increase was 1.1 fold.

With B43, the Affinity increase was determined as 0.7 fold.

As for B44, the Affinity increase was determined as 1.5 fold.

Another experiment concerns the target T1, AFP158/HLA-A*02:01 complex. Briefly: SPR, scFv captured, pMHC in flow.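 Note: complex injected at several concentrations over crude scFv, association then running-buffer dissociation, KD estimated from kinetic on- and off-rate constants.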 This is another data set of the same source.
Method: as §1
Take B27: binding was put at a Kd of 190 nM.

B28 gave a Kd of 230 nM.

In turn, B29 showed a Kd of 35 nM.

B30 showed a Kd of 290 nM.

Consider B31, for which the Kd is 130 nM.

B32 gave a Kd of 350 nM.

B33: the Kd amounted to 130 nM.

On to B34, for which the affinity, expressed as Kd, was 92 nM.

Turning to B35, the affinity, expressed as Kd, was 300 nM.

The molecule B36 came in with a Kd of 240 nM.

As to B37, the Kd stood at 160 nM.

B38 displayed a Kd of 98 nM.

Molecule B39 showed a Kd of 160 nM.

In turn, B40 yielded a Kd of 300 nM.

With B41, binding was put at a Kd of 240 nM.

Regarding B42, the Kd turned out to be 210 nM.

In turn, B43 returned a Kd of 340 nM.

With B44, the Kd is 150 nM.

Source of the values: patent publication US20240279318A1 (NANJING LEGEND BIOTECH, published 2024).
